From publication PMC6362308

Biological target: taxol-stabilized microtubules
Assay: co-sedimentation; 0.1 uM recombinant RECQL4 with or without 2 uM taxol-stabilized microtubules, 15 min, 20,000 g for 10 min at RT; supernatant and pellet analysed by Coomassie staining and Western blot against His6-tag (Fig 1B)

taxol-stabilized microtubules, sequence (P68363 whole entry, chain 1 of 2): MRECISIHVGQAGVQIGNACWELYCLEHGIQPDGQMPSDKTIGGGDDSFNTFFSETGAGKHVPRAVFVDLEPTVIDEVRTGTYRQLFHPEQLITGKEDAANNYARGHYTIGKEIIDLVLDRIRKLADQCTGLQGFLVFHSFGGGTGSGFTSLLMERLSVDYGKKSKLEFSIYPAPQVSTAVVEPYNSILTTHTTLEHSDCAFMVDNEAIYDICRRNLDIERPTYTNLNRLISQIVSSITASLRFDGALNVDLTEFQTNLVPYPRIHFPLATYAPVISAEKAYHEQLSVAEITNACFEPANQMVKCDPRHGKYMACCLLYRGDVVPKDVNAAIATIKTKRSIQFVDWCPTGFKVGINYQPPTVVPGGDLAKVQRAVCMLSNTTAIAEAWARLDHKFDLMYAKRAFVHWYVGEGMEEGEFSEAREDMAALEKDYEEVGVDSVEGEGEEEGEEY
taxol-stabilized microtubules, sequence (A8K068 whole entry, chain 2 of 2, further chain): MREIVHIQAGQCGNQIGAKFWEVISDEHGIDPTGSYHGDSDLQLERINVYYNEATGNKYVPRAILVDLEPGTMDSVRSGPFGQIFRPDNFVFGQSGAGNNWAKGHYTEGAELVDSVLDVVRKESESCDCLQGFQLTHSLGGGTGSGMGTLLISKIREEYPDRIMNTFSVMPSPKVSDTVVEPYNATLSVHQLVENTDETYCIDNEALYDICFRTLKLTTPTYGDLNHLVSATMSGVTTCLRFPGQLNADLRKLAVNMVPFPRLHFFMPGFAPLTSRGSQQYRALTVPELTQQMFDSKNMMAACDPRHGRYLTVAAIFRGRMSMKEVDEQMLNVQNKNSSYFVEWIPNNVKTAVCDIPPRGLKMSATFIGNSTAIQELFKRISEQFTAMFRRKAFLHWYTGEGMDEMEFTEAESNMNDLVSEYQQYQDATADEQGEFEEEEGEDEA

“Recombinant Xenopus RECQL4 expressed in insect cells (natural protein)” showed a percent of the protein in the pellet of 100%.
